According to the DeepSol protein solubility set:

Experiment: soluble on expression in E. coli; label from the status in PepcDB or PDB records

Sequence | soluble on expression in E. coli
MSSSIPRVYSLGNSAMTYLLALRIAQLPSQPKVPSVVLLLNDQKKLNRFLNNDSKIIVKSSNNNKETYHRQFMASCVPPILSNGEIAPIENLIVSDPSSKFITAQLSKYNKSLRPETNILFLNPSLNLLEHLHRYRWRFDEARPNLFMGFTTPVDVGTIHQEFQLSLKVKGRIQFHIAKIDGFPRMSSTGKSASLSLRGDRQKNEKENNAFYKLFREISRLRSGIGSDLVSFDLHVHGFQDLFFTELEKLILESCTEPLLAVYDCVYKKELLKIPGAQDIIKKLISEQLSIIDRSYPSLNTNPNYSVIFDKERIFSLVMRDLEVNGHKRAKLAQSLNQLNQTNINELNGFFVSLGKYKKCNCKWNDILLTLIKGKQFITKQKALDYHYL | soluble
MSSSLLASLSRLSLLQTRQIHQTIPAGSSVFMKRQKKIDPEVAKQRETRRRKRLEKDIRQMQKHSKKPKPVDELTLDVKSAKNIGERRRPRTELTLEQIDERAIALKDYTRSRLALQQEDDAWIRGAIESQRKALNELKMLKLELYEAAVQPAAKDLPLIVQGPSLTPPIRNYEAPDGDYIDTTRNWAS | not soluble
MSSYRGGSRGGGSNYMSNLPFGLGYGDVGKNHITEFPSIPLPINGPITNKERSLAVKYINFGKTVKDGPFYTGSMSLIIDQQENSKSGKRKPNIILDEDDTNDGIERYSDKYLKKRKIGISIDDHPYNLNLFPNELYNVMGINKKKLLAISKFNNADDVFTGTGLQDENIGLSMLAKLKELAEDVDDASTGDGAAKGSKTGEGEDDDLADDDFEEDEDEEDDDDYNAEKYFNNGDDDDYGDEEDPNEEAAF | not soluble
MSTAVIVSRPPSQTASFHGPQHPNRCSFSSSSSESIPPTTGRAKGSSDFEELEIRIDKALKERDAEWRKHEKSQIQFLQNETSNMLKSLHNEINRLGNELREEKRKTLHGDDDSADKIAELEKVITEKEAYTKNLEKKVSTTIQKLQEQITIQSDRIRQLNEELSDRNQTVTHLSQQLRAIKLREAMATSQHRRRASSQLSTTSSPPMTSPSSPHRIFPPVSSGLLSASVAVTYPGNSRISIQKRSTSAMRAPTMPN | not soluble
MSTDIDCIVIGAGVVGLAIARALAAGGHEVLVAEAAEGIGTGTSSRNSEVIHAGIYYPADSLKARLCVRGKHLLYEYCAARGVPHQRLGKLIVATSDAEASQLDSIARRAGANGVDDLQHIDGAAARRLEPALHCTAALVSPSTGIVDSHALMLAYQGDAENDGAQLVFHTPLIAGRVRPEGGFELDFGGAEPMTLSCRVLINAAGLHAPGLARRIEGIPRDSIPPEYLCKGSYFTLAGRAPFSRLIYPVPQHAGLGVHLTLDLGGQAKFGPDTEWIATEDYTLDPRRADVFYAAVRSYWPALPDGALAPGYTGIRPKISGPHEPAADFAISGPASHGVAGLVNLYGIESPGLTASLAIAEETLARLAALEHHHHHH | soluble
MSTGKIIQVIGAVIDVEFARDNTPKVYDALNVVEAGLVLEVQQQIGDGVVRTIAMGSSDGLRRGMEVKNTNAPISVPVGHGTLGRIMNVLGEPIDEAGPIEYTEKRSIHQAPPAYDELALSTEILETGIKVVDLICPFAKGGKVGLFGGAGVGKTVTMMELINNIAKEHSGYSVFAGVGERTREGNDFYYEMKDSNVLDKVSLVYGQMNEPPGNRLRVALSGLTIAEGFRDEKRDVLMFIDNIYRYTLAGTEVSALLGRMPSAVGYQPTLAAEMGALQERITSTKTGSITSVQAVYVPADDLTDPSPATTFSHLDATIVLSRQIAELGIYPAVDPLDSTSRQLDPLVVGQDHYETARAVQKVLQRYKELKDIIAILGMDELSDEDKKIVDRARKIQRFLSQPFHVAEVFTGNPGKFVSLKDTVASFKAIVNGEYDHLPEQAFYMVGSIQEAIEKAKTL | not soluble
MSTGSTKLRNVDAVIKKGKPFSILLLGTDTGALGRGKDFSARTDTMIVATINPKKESMTLTSIPRDTQVMIDGQSQKINAAYTIGGASGAVKSVEKLLDVPIDFYVLLNMGGLKQIINAMGGVTVTPKLTFKYGNANVKKGVKIKLNGAAALDYSRMRYDDPQGDYGRQKRQQQVIMAMVSQSNSLGSIANIEKITKKLAKNMRTDLTWNDMVALDTKYKNASHHAKSYTVQGTDATIDGLSYQVASSSERYKNSKRIRKALGLSNSNLTESVFSETASITTGSSSSSSSSSSTTTSSDTTTYGTSTTQDTTTQDQTTTQDQTTTNQYLEHHHHHH | soluble
MSTKYLFIYNEIREKILCNKYTMNEQLPDEMTLAKQFACSRMTIKKALDLLVSEGLIFRKRGQGTFVLSRGSSKRKLIVPERDIRGLTKISEDAHSTIDSRIIHFKLEFANEFLAEKLQVALQSPVYNIYRLRIIDGKPYVLEQTYMSTDVIPGITEDILQKSIYNYIEGKLGLHIASATKILRASSSSENEQHYLQLLPTEPVFEVEQVAYLDNGTPFEYSISRHRYDLFEFNSFALRHSS | not soluble
MSTMGNEASYPAEMCSHFDNDEIKRLGRRFKKLDLDKSGSLSVEEFMSLPELRHNPLVRRVIDVFDTDGDGEVDFKEFILGTSQFSVKGDEEQKLRFAFSIYDMDKDGYISNGELFQVLKMMVGNNLTDWQLQQLVDKTIIILDKDGDGKISFEEFSAVVRDLEIHKKLVLIV | soluble
MSTPTVITLNDGREIQATDKPSYDEDSGFYEFEQLDGKRTRLNKDQIRTVKELLEHHHHHH | not soluble
MSTQIKVTPEQLEQAAKTVKNTRSSLEYIHQDLYSQTEYIASQWSGASSDRFYQMFNEAKPMMFNILQELDKIAVELERAAVKFREADELYGGNLVDSDIQEGAMCGKIPPKSEESFFNNKDLNAAWTGISTGFVDGAVDAWEGLISLGDKETWLNMRDAIVNYEETIPAALNALSDSFVNNLWHGDMESREHYAAYGIATLGLGLLGDKGLSKAGQVGKGAAITGFTKGKSLVTNSPAYRNALHILNNYEFKAGNHLSYAGVGSIQKYLQKAAPYTYEGPNGPKTIRLRLGELAGDKHPVTGIRYDLDGFPIFKALSEVKLKEADFKKSRPTHDRICSKALYEQIMKDPKLAAKFTEEEIELFKLGEVPENYTWHHHQEAGRMQLVDYETHRKTGHTGGYKIWGKDSDK | not soluble
MSTSQEISDPAQATSSAQVKWPRYLEATLGFDNHWHPAAFDHELAEGEFVAVTMLGEKVLLTRAKGEVKAIADGCAHRGVPFSKEPLCFKAGTVSCWYHGWTYDLDDGRLVDVLTSPGSPVIGKIGIKVYPVQVAQGVVFVFIGDEEPHALSEDLPPGFLDEDTHLLGIRRTVQSNWRLGVENGFDTTHIFMHRNSPWVSGNRLAFPYGFVPADRDAMQVYDENWPKGVLDRLSENYMPVFEATLDGETVLSAELTGEEKKVAAQVSVWLPGVLKVDPFPDPTLIQYEFYVPISETQHEYFQVLQRKVEGPEDVKTFEVEFEERWRDDALHGFNDDDVWAREAQQEFYGERDGWSKEQLFPPDMCIVKWRTLASERGRGVRAARVEMSHHHHHH | soluble
MSVDKYGKVYLIGAGPGNPNYLTKKAERLIREADVILYDRLVNPLILQYANLTTEIIDVGKKPYAKHIQQEKINECIVEAARRYNKVVRLKGGDPAIFGRVQEEVDTLNNFNIAFEIVPGVTSASAAVATMQTGLTMRAVAKSVTFSTGHFKDSEENEVDVNALVNGGTLAIYMGVKRLGKIIAQIQQYTDIDYPIAIVFQASCFNEFVVKGRLSNIVGKLEHYAIEAKPGICIIGEVVGYTENVSTTSNPTQQFYVVSGSRHDALMLCEHLYDEGYGCLLNPNDTSNGTYHSSQYDYYDAFIKQQENVTYISTDRADANTVLCH | not soluble
MSVDVKSDFSENESSSTPSPTTVPADVTWPHYPMMPFMQPHPLREKMLQPTFDPQIYGRWSQMGDTGFYGHPDLYPFGLPQLAANGQIPAVEAVDVKPPLSNGSSSSDSGMYPSPSDMMTPFPSTSSGAASSSELSAAAAAAANYQMRAATCYQQSVWPFMDYQQFQGFSWKMPLGNNHGKDRRSSSDGKTLPTGPGTNNVRVRTADKYRMVYSDYQRLELEKEFHTSPFITSDRKSQLSTMLSLTERQIKIWFQNRRAKDRRDKQKIRL | not soluble
MSVLQKIADIEAEMARTQKNKATNAHLGILKAKLAKLRRDLITPKGGGGGPGEGFDVAKTGDARIGFVGFPSVGKSTLLCNLAGVFSEVAAYEFTTLTTVPGVIRYKGAKIQLLDLPGIIEGAKDGKGRGKQVIAVARTCSLILMVLDVMKPLQHKKLLEYELEGFGIRLNKQPPNIGYKRKEKGGINLTMLVPQSELDLDLVKSILAEYRIHNADITLRYDATSEDLIDVIEGNRIYIPCIYVLNKIDQISIEELDIIYRIPHTVPISAHHKWNFDDLLEKVWEYLNLIRIYTKPKGQLPDYSQPIVLNAERKSIEDLCTKIHKSLQKDFKCALVWGASAKHNPQRVGRDHVLIDEDVVQVIKKV | not soluble
MSVPGPSSPDGALTRPPYCLEAGEPTPGLSDTSPDEGLIEDLTIEDKAVEQLAEGLLSHYLPDLQRSKQALQELTQNQVVLLDTLEQEISKFKECHSMLDINALFAEAKHYHAKLVNIRKEMLMLHEKTSKLKKRALKLQQKRQKEELEREQQREKEFEREKQLTARPAKRM | soluble
MSVSRRDVLKFAAATPGVLGLGVVASSLRAAPASAGSLGTLLDYAAGVIPASQIRAAGAVGAIRYVSDRRPGGAWMLGKPIQLSEARDLSGNGLKIVSCYQYGKGSTADWLGGASAGVQHARRGSELHAAAGGPTSAPIYASIDDNPSYEQYKNQIVPYLRSWESVIGHQRTGVYANSKTIDWAVNDGLGSYFWQHNWGSPKGYTHPAAHLHQVEIDKRKVGGVGVDVNQILKPQFGQWA | not soluble
MSVSSEISASKLPYVRIPGSKPVPRLLKWTIFKCSFMKIRTIGLHHPDGRLYFFEFCQGKDTFVPHVCSACLPIITEKDLFPDYIVWAEEIEDYVIFAFSSMSNKMEQFVYSFETRRFVEVDLPELVYNRGDATTGDIVAALYGENETIVIERDENGAMLIRSFVHKDNSRKPVNTLVMQNIEKNGLQVGKDEEVTDISNEFGYLDYVETLPELKIKTCSANRTSIHVFSKKTGRYLKYHYVINTGSFINTSNLDCSNCNSVTSEKYLLPEYSVYSKALDARVIHCTNNLTSDIEQYTFNPDTNAFEQVYCKELVYDPNRFNRASLAAYVFPENVANNGTVIISRDVYEVIQKEKYSIVTDEYVVLPAAPVKTFAVRIQEEKQKKLDEEEQQKVLKTQELEKQKDGQIVIMELEMKEMTTLLEEKDTRIKMHVEKHRDKECELELVRRKLDDCVVRMQGAFERDIKLEEAKVQASREAKKQYENLMTILGEKE | not soluble
MSWQLALYNGLWRALTPLVRRYLKKRARKAPAYLEHWDERFGQALSPSATGAIWIHAVSVGETRAAQPLVAAIRREWPDAPLLLTQMTPTGRATAEQLYPDAEVRYLPYDYPQAAADFLRAYRPRCGVLMETEIWPNLIHAAAAQRIPLLLANARLSEKSLNGYRKIAGLISPAIAKLTAVAAQTAEDADRLRQLGARSVSVCGSSKYDIEVPEAQRHLAADFRAMAGGRRALLCASTRDGEEALILDAWLAAGAAVGDTLLVLVPRHPERWDEVEKLAAERGLKSQRRSGGAAIAADTRVWLGDSMGEMFGYLGACDVAFIGGSLLPYGCHNLIEPAQVGVPALFGPSVFNFQQAAADSLAAGAGRQVGDAAALVSTALSLMDDPAAGEAMRQGAVRFRDAHRGASERMLALIREAMSAGSEKLEHHHHHH | not soluble
